# Starred links: 1 amine or outer side, 2 acyl side, 3 side chain; linkers in the order of their positions; H or OH if unused. Non-standard residues stand in square brackets, D forms with d. Residues, ends and D or L forms follow the SMILES beside them. Groups on a side chain read outwards from the residue. No end group written: not given here. *: point of attachment. C18 diacid = O=C(O)CCCCCCCCCCCCCCCCC(=O)*; C16 diacid = O=C(O)CCCCCCCCCCCCCCC(=O)*; γGlu = O=C(O)[C@H](CCC(=O)[*:2])N[*:1]; Glutaryl = O=C(CCCC(=O)[*:2])[*:1]; AEEA = NCCOCCOCC(=O)O; Aib = CC(C)(N)C(=O)O
# T1: human GIP receptor (Homo sapiens, UniProt P48546)
# T1 construct: host or cells: HEK-293 cells, transient transfection (Lipofectamine 2000), cDNA in pCMV-Script vector
# T1 sequence (P48546 22-466): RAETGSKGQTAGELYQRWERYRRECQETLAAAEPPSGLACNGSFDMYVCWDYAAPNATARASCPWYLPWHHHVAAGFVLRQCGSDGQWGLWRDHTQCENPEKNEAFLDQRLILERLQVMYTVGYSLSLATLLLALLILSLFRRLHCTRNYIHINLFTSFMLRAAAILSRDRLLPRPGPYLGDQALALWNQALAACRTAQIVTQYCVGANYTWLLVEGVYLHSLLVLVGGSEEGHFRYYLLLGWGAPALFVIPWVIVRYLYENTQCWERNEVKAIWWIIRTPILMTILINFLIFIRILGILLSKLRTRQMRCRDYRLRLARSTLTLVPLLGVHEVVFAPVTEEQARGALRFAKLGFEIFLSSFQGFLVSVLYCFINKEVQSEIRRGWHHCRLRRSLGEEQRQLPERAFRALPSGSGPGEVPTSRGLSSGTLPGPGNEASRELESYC
# T2: human GIP receptor (human, UniProt P48546 22-466)
# T2 sequence (looked up): T1 sequence (P48546 22-466)
# B1: AT763 (peptide)
# peptide: Glutaryl-GTFISDYSI[Aib]MDKIK(C16 diacid)QQDFVNWLLAQKPSSGAPPPS-OH
# B2: AT762 (peptide)
# peptide: Glutaryl-GTFISDYSIAMDKIK(C16 diacid)QQDFVEWLLAQKPSSGAPPPS-OH
# SMILES: CC[C@H](C)[C@H](NC(=O)[C@H](CO)NC(=O)[C@H](Cc1ccc(O)cc1)NC(=O)[C@H](CC(=O)O)NC(=O)[C@H](CO)NC(=O)[C@@H](NC(=O)[C@H](Cc1ccccc1)NC(=O)[C@@H](NC(=O)CNC(=O)CCCC(=O)O)[C@@H](C)O)[C@@H](C)CC)C(=O)N[C@@H](C)C(=O)N[C@@H](CCSC)C(=O)N[C@@H](CC(=O)O)C(=O)N[C@@H](CCCCN)C(=O)N[C@H](C(=O)N[C@@H](CCCCNC(=O)CCCCCCCCCCCCCCC(=O)O)C(=O)N[C@@H](CCC(N)=O)C(=O)N[C@@H](CCC(N)=O)C(=O)N[C@@H](CC(=O)O)C(=O)N[C@@H](Cc1ccccc1)C(=O)N[C@H](C(=O)N[C@@H](CCC(=O)O)C(=O)N[C@@H](Cc1c[nH]c2ccccc12)C(=O)N[C@@H](CC(C)C)C(=O)N[C@@H](CC(C)C)C(=O)N[C@@H](C)C(=O)N[C@@H](CCC(N)=O)C(=O)N[C@@H](CCCCN)C(=O)N1CCC[C@H]1C(=O)N[C@@H](CO)C(=O)N[C@@H](CO)C(=O)NCC(=O)N[C@@H](C)C(=O)N1CCC[C@H]1C(=O)N1CCC[C@H]1C(=O)N1CCC[C@H]1C(=O)N[C@@H](CO)C(=O)O)C(C)C)[C@@H](C)CC
# B3: AT482 (peptide)
# peptide: EGTFISEYSIAMEKIK(C16 diacid)QQEFVQWLLAQK-NH2
# modifications: N-terminus assumed
# SMILES: CC[C@H](C)[C@H](NC(=O)[C@H](CO)NC(=O)[C@H](Cc1ccc(O)cc1)NC(=O)[C@H](CCC(=O)O)NC(=O)[C@H](CO)NC(=O)[C@@H](NC(=O)[C@H](Cc1ccccc1)NC(=O)[C@@H](NC(=O)CNC(=O)[C@@H](N)CCC(=O)O)[C@@H](C)O)[C@@H](C)CC)C(=O)N[C@@H](C)C(=O)N[C@@H](CCSC)C(=O)N[C@@H](CCC(=O)O)C(=O)N[C@@H](CCCCN)C(=O)N[C@H](C(=O)N[C@@H](CCCCNC(=O)CCCCCCCCCCCCCCC(=O)O)C(=O)N[C@@H](CCC(N)=O)C(=O)N[C@@H](CCC(N)=O)C(=O)N[C@@H](CCC(=O)O)C(=O)N[C@@H](Cc1ccccc1)C(=O)N[C@H](C(=O)N[C@@H](CCC(N)=O)C(=O)N[C@@H](Cc1c[nH]c2ccccc12)C(=O)N[C@@H](CC(C)C)C(=O)N[C@@H](CC(C)C)C(=O)N[C@@H](C)C(=O)N[C@@H](CCC(N)=O)C(=O)N[C@@H](CCCCN)C(N)=O)C(C)C)[C@@H](C)CC
# B4: AT437 (peptide)
# peptide: SGTFISDYSIAMDKIK([AEEA-AEEA-γGlu-C18 diacid])QQDFVNWLLAQKPSSGAPPPS-OH
# modifications: N-terminus assumed
# SMILES: CC[C@H](C)[C@H](NC(=O)[C@H](CO)NC(=O)[C@H](Cc1ccc(O)cc1)NC(=O)[C@H](CC(=O)O)NC(=O)[C@H](CO)NC(=O)[C@@H](NC(=O)[C@H](Cc1ccccc1)NC(=O)[C@@H](NC(=O)CNC(=O)[C@@H](N)CO)[C@@H](C)O)[C@@H](C)CC)C(=O)N[C@@H](C)C(=O)N[C@@H](CCSC)C(=O)N[C@@H](CC(=O)O)C(=O)N[C@@H](CCCCN)C(=O)N[C@H](C(=O)N[C@@H](CCCCNC(=O)COCCOCCNC(=O)COCCOCCNC(=O)CC[C@H](NC(=O)CCCCCCCCCCCCCCCCC(=O)O)C(=O)O)C(=O)N[C@@H](CCC(N)=O)C(=O)N[C@@H](CCC(N)=O)C(=O)N[C@@H](CC(=O)O)C(=O)N[C@@H](Cc1ccccc1)C(=O)N[C@H](C(=O)N[C@@H](CC(N)=O)C(=O)N[C@@H](Cc1c[nH]c2ccccc12)C(=O)N[C@@H](CC(C)C)C(=O)N[C@@H](CC(C)C)C(=O)N[C@@H](C)C(=O)N[C@@H](CCC(N)=O)C(=O)N[C@@H](CCCCN)C(=O)N1CCC[C@H]1C(=O)N[C@@H](CO)C(=O)N[C@@H](CO)C(=O)NCC(=O)N[C@@H](C)C(=O)N1CCC[C@H]1C(=O)N1CCC[C@H]1C(=O)N1CCC[C@H]1C(=O)N[C@@H](CO)C(=O)O)C(C)C)[C@@H](C)CC
# B5: AT760 (peptide)
# peptide: EGTFISDYSIXMDKIKQQDFVNWLLAQKPSSGAPPPS
# modifications: Aib at 13; C16-diacid on Lys18 side chain, no linker; C-terminal COOH; GIP(1-42) numbering
# B6: GIP(3-30) (peptide)
# peptide: EGTFISDYSIAMDKIHQQDFVNWLLAQK
# B7: AT158 (peptide)
# peptide: EGTFISDYSIAMDKIK(C16 diacid)QQDFVNWLLAQK-NH2
# modifications: N-terminus assumed
# SMILES: CC[C@H](C)[C@H](NC(=O)[C@H](CO)NC(=O)[C@H](Cc1ccc(O)cc1)NC(=O)[C@H](CC(=O)O)NC(=O)[C@H](CO)NC(=O)[C@@H](NC(=O)[C@H](Cc1ccccc1)NC(=O)[C@@H](NC(=O)CNC(=O)[C@@H](N)CCC(=O)O)[C@@H](C)O)[C@@H](C)CC)C(=O)N[C@@H](C)C(=O)N[C@@H](CCSC)C(=O)N[C@@H](CC(=O)O)C(=O)N[C@@H](CCCCN)C(=O)N[C@H](C(=O)N[C@@H](CCCCNC(=O)CCCCCCCCCCCCCCC(=O)O)C(=O)N[C@@H](CCC(N)=O)C(=O)N[C@@H](CCC(N)=O)C(=O)N[C@@H](CC(=O)O)C(=O)N[C@@H](Cc1ccccc1)C(=O)N[C@H](C(=O)N[C@@H](CC(N)=O)C(=O)N[C@@H](Cc1c[nH]c2ccccc12)C(=O)N[C@@H](CC(C)C)C(=O)N[C@@H](CC(C)C)C(=O)N[C@@H](C)C(=O)N[C@@H](CCC(N)=O)C(=O)N[C@@H](CCCCN)C(N)=O)C(C)C)[C@@H](C)CC
# Key:
# human GIP receptor [1] = target: T1, human GIP receptor; experiment: cAMP assay Alternative 2 (Gaddum assay), antagonist potency pKb; type: cell-based
# [2] = Solubility by visual inspection of peptide solutions; type: physicochemical; conditions: 1 mg/ml, TFA, Phosphate (7.4)
# Procedure, shortened: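 Peptides dissolved at 1, 5, 7.5 or 15 mg/ml in 50 mM sodium phosphate pH 7.4 or water adjusted to pH 7.4 with NaOH, with gentle mixing. Immediate solubility judged visually as a clear, colorless solution.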
# [3] = Physical stability: fibril formation in Thioflavin T (ThT) assay with agitation; type: physicochemical; conditions: 1 mg/ml, TFA, Phosphate (7.4); 25° C., agitation
# Procedure, shortened: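 Peptides at 1, 5, 7.5 or 15 mg/ml in 50 mM sodium phosphate pH 7.4 or in water adjusted to pH 7.4 with NaOH, filtered 0.22 μm, with ThT added. Wells held a 3 mm silica bead under 300 rpm orbital agitation at 25° C. Emission at 486 nm tracked continuously; lag time = 10% of transition above baseline.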
# human GIP receptor [4] = target: T2, human GIP receptor; experiment: cell-based or functional assay
# human GIP receptor [5] = target: T2, human GIP receptor; experiment: cell-based or functional assay; remark: listed apart in the source
molecule,measurement,setting,value
CC[C@H](C)[C@H](NC(=O)[C@H](CCCCN)NC(=O)[C@H](CC(=O)O)NC(=O)[C@H](CCSC)NC(=O)[C@H](C)NC(=O)[C@H](CCCCNC(=O)CCCCCCCCCCCCCCC(=O)O)NC(=O)[C@H](CO)NC(=O)[C@H](Cc1ccc(O)cc1)NC(=O)[C@H](CC(=O)O)NC(=O)[C@H](CO)NC(=O)[C@@H](NC(=O)[C@H](Cc1ccccc1)NC(=O)[C@@H](NC(=O)CNC(=O)[C@@H](N)CCC(=O)O)[C@@H](C)O)[C@@H](C)CC)C(=O)N[C@@H](Cc1c[nH]cn1)C(=O)N[C@@H](CCC(N)=O)C(=O)N[C@@H](CCC(N)=O)C(=O)N[C@@H](CC(=O)O)C(=O)N[C@@H](Cc1ccccc1)C(=O)N[C@H](C(=O)N[C@@H](CCC(=O)O)C(=O)N[C@@H](Cc1c[nH]c2ccccc12)C(=O)N[C@@H](CC(C)C)C(=O)N[C@@H](CC(C)C)C(=O)N[C@@H](C)C(=O)N[C@@H](CCC(N)=O)C(=O)N[C@@H](CCCCN)C(=O)N1CCC[C@H]1C(=O)N[C@@H](CO)C(=O)N[C@@H](CO)C(=O)NCC(=O)N[C@@H](C)C(=O)N1CCC[C@H]1C(=O)N1CCC[C@H]1C(=O)N1CCC[C@H]1C(=O)N[C@@H](CO)C(=O)O)C(C)C [AT739] (H-EGTFISDYSK(C16 diacid)AMDKIHQQDFVEWLLAQKPSSGAPPPS-OH; N-terminus assumed),Kb,human GIP receptor [1],11 nM
same,Visual appearance,[2],Clear
same,Avr lag time (h),[3],fnd (Fnd = fibrils not detected within experiment time (96 hours) with agitation.)
CC[C@H](C)[C@H](NC(=O)[C@H](CO)NC(=O)[C@H](Cc1ccc(O)cc1)NC(=O)[C@H](CC(=O)O)NC(=O)[C@H](CO)NC(=O)[C@@H](NC(=O)[C@H](Cc1ccccc1)NC(=O)[C@@H](NC(=O)CNC(=O)[C@@H](N)CCC(=O)O)[C@@H](C)O)[C@@H](C)CC)C(=O)N[C@@H](C)C(=O)N[C@@H](CCSC)C(=O)N[C@@H](CC(=O)O)C(=O)N[C@@H](CCCCNC(=O)CCCCCCCCCCCCCCC(=O)O)C(=O)N[C@H](C(=O)N[C@@H](Cc1c[nH]cn1)C(=O)N[C@@H](CCC(N)=O)C(=O)N[C@@H](CCC(N)=O)C(=O)N[C@@H](CC(=O)O)C(=O)N[C@@H](Cc1ccccc1)C(=O)N[C@H](C(=O)N[C@@H](CCC(=O)O)C(=O)N[C@@H](Cc1c[nH]c2ccccc12)C(=O)N[C@@H](CC(C)C)C(=O)N[C@@H](CC(C)C)C(=O)N[C@@H](C)C(=O)N[C@@H](CCC(N)=O)C(=O)N[C@@H](CCCCN)C(=O)N1CCC[C@H]1C(=O)N[C@@H](CO)C(=O)N[C@@H](CO)C(=O)NCC(=O)N[C@@H](C)C(=O)N1CCC[C@H]1C(=O)N1CCC[C@H]1C(=O)N1CCC[C@H]1C(=O)N[C@@H](CO)C(=O)O)C(C)C)[C@@H](C)CC [AT741] (H-EGTFISDYSIAMDK(C16 diacid)IHQQDFVEWLLAQKPSSGAPPPS-OH; N-terminus assumed),Kb,human GIP receptor [1],11 nM
same,Visual appearance,[2],Clear
same,Avr lag time (h),[3],fnd (Fnd = fibrils not detected within experiment time (96 hours) with agitation.)
B1,"nM (Kb, Schild analysis, cAMP)",human GIP receptor [4],0.14 nM
same,"pKb (Schild analysis, cAMP)",human GIP receptor [4],9.9
B2,"nM (Kb, Schild analysis, cAMP)",human GIP receptor [4],0.15 nM
same,"pKb (Schild analysis, cAMP)",human GIP receptor [4],9.8
B3,"cAMP antagonism nM (IC50, CisBio assay)",human GIP receptor [5],14.1 nM
same,cAMP antagonism pIC50 (CisBio assay),human GIP receptor [5],7.9
B4,"cAMP antagonism nM (IC50, CisBio assay)",human GIP receptor [5],35.5 nM
same,cAMP antagonism pIC50 (CisBio assay),human GIP receptor [5],7.5
B5,"nM (Kb, Schild analysis, cAMP)",human GIP receptor [4],0.46 nM
same,"pKb (Schild analysis, cAMP)",human GIP receptor [4],9.3
B6,"nM (Kb, Schild analysis, cAMP)",human GIP receptor [4],3.5 nM
same,"pKb (Schild analysis, cAMP)",human GIP receptor [4],8.5
same,"cAMP antagonism nM (IC50, CisBio assay)",human GIP receptor [5],33.8 nM
same,cAMP antagonism pIC50 (CisBio assay),human GIP receptor [5],7.5
B7,"nM (Kb, Schild analysis, cAMP)",human GIP receptor [4],3.7 nM
same,"pKb (Schild analysis, cAMP)",human GIP receptor [4],8.4
same,"cAMP antagonism nM (IC50, CisBio assay)",human GIP receptor [5],14.3 nM
same,cAMP antagonism pIC50 (CisBio assay),human GIP receptor [5],7.8
